Results on twelve sequences are retold here after the DeepSol protein solubility set.

The nature of this data set: soluble on expression in E. coli; label from the status in PepcDB or PDB records.
With “MSLEKVLVIVGPTAVGKTALSIALAKKFNGEIISGDSMQVYRSLDIGTAKVTETEKEGIPHYLIDCREVSETYSAADFQKEGRQKIKEITEKGKLPIIVGGTGLYIQSLLYDFQLGSREIDDSPEIRETYNLFAEEKGNQALWLLLQQKDPLAANSIHFNNRKKVIRALEVFDKTGYSILTPKEKPARLYDYYLLGLETDRALLYERINQRVDQMMTEGLLEEAKQMFQQPHAQAAQGIGYKEFFPYFSGEQSLEMAVETVKQQSRRYAKRQLTWFRNRMAAHWWNLVQQPTDLPKLEKEVAEWLQQKESEEGHHHHHH”, the “soluble on expression in E. coli” value is “soluble”.
Next, “MSLEKVQLPSVPAFKGHSFLAFPTLRAYHTLRLAMEFRALETEGLLLYNGNARGKDFLALALLDGHVQFRFDTGSGPAVLTSLVPVEPGRWHRLELSRHWRQGTLSVDGEAPVVGESPSGTDGLNLDTKLYVGGLPEEQVATVLDRTSVGIGLKGCIRMLDINNQQLELSDWQRAVVQSSGVGEEGHHHHHH”: “soluble”; “MSLELFRSKTCALCKGRKLMCGRPRCPILEKFRVAKSVESKINKKEIFGASPPSVFVGEFGYPNVRIGPMVPPVEGDTSFMDDPSRWENVTILEIMEYRSMLVMGETNAHVQVKKNLNFLTHIQELAMANKPVDSEILLKKTPKLDLITGGFTPPVGPRETMLKFKLAENPKIPKKTDYIVNDELKANEGMISLYDSGFDEYYIIKLLSTGLLGVNKKLVPTKWSITAAQDLLGKYVKKSILEYSQINEYEVYFKNFLGNRYAVLLIPDIYAYEMLEVWLKGSLFSGESYNVLSDFEDTTGMKGYADEITGAFYACRLSILEYLKKRKKQAKILVFREITPEYYAPVGVWQIRTGVKLAMENRVGRFNNLKSALESIKKHLEVPIDDYKTKSKILKSNDRQITLDKFFEGHHHHHH”: “not soluble”.
Regarding “MSLELPSFIFQAQENLVERPWGGEWIALLKGFRQSGIGESWEFSAHTSRPSTVLVKGQQLSMIELFSKHRDELLGRAAEKFSKFPILVRLIDAASPTQVHVHPSDKAAESLGEAEGGVESAWLVFNKGKAYAGFKEDVKIEELEEKLKEEDFDFKTLLNTFETTPYDTFVIRPGIPHAGEGLRVLEVSSNSTLAYFFNENDWEKVKKVLNTKKVEEFEVKGKKGMAETENFGLEVVDVTGTAEIKTGGVMNILYAAEGYFILRGKETADLHRGYSCLVPASTDSFTVESERGKIVRIYLKVEGGSHHHHHH”, the “soluble on expression in E. coli” value was “soluble”.
For “MSLENCKKVNYERVEKERESGSSISIRNFKREAYDSSGQLQWELRANESFVYVNENKTTFYDIDFDQYEAGKFKSKLLAEKGEINHKTRLMLLEGKILLKTDDHKILTAKTMEYNMDTKKLVSDSEVSVSADGTTIRGIGLRADKDLNKFTILKPTAITQGGTNPLKAAGSPEGHHHHHH” the value was “soluble”.
For “MSLENIRNIAVIAHVDHGKTTMVDELLKQSGTFSEREQISERVMDSNDIEKERGITILSKNTAINYKGTKINIIDTPGHADFGGEVERVLKMIDGVLLLVDAQEGVMPQTKFVVKKALSLGLKPIVVINKIDKPAADPERVINEIFDLFVALDANDEQLDFAIVYAAAKNGYAKLDLNDESDNMEPLFKTILERVPAPSGSDENPLQLQVFTLGYDNFVGKIGIARIFNGVVKKNQSVMLAKADGTKVNGRISKLIGFMGLEKMDIEEAGSGDIVAIAGFEALDVGDSVVDPNNPMPLDPLHIEEPTLSIVFSVNDGPLAGTEGKHVTSNKIAERLEAEMKTNIAMKYESTGEGKFKVSGRGELQITILAENMRREGFEFCMGRPEVIVKVEDGVKTEPFEHLVIDVPEEFSGAVIEKLGKRKAEMKTMAPTGDGQTRLEFEIPARGLIGFRSQFLTDTKGEGVMNHSFLEFRPFSGAVEKRNNGALISMENGVALGYSLFNLQERGVLFIEPQTKVYTGMIIGEHSRPNDLDVNPIKGKNLTNVRASGSDDAIKLVPPRKLSLERALEWIEEDELVEVTPVNVRVRKRYLDPTQRKRMEKAKEGHHHHHH” the value was “soluble”.
For the sequence “MSLENKKMEFWFVVGSQHLYGEEALKEVRKNSETIVDELNKSANLPYKIIFKDLATSADKIKEIMKEVNYRDEVAGVITWMHTFSPAKMWIAGTKILQKPLLHFATQYNENIPWKTIDMDYMNLHQSAHGDREYGFINARLKKHNKVVVGYWKDKEVQKQVSDWMKVAAGYIASESIKVARFGDNMRNVAVTEGDKVEAQIQFGWTVDYFGIGDLVAEMDKVSQDEINKTYEEFKDLYILDPGENDPAFYEKQVKEQIKIEIGLRRFLEKGNYNAFTTNFEDLYGMKQLPGLAVQRLNAEGYGFAGEGDWKTAALDRLLKVMTNNTATGFMEDYTYELSRGNEKALGAHMLEVDPTFASDKPKVIVKPLGIGDKEDPARLIFNGSTGKGVAVSMLDLGTHYRLIINGLTAVKPDEDMPNLPVAKMVWKPEPNFIEGVKSWIYAGGGHHTVVSLELTVEQVYDWSRMVGLEAVIIDKDTKLRDIIEKTTEGHHHHHH”, the “soluble on expression in E. coli” value was “soluble”.
“MSLENNKAKMNEKEEIIFNSIRKNPYISQQELADILDLSRPTVANLISGLIKKGRILGKAYILNEAKQIVCIGGANVDRKFYIKDKAQLATSNPVRSTQSAGGVARNVGENLGRLGKEVILLTACGTDSDWEAVKNASNTYMNLDYVTAFPSIATGSYTAVLENNGDLLVALADMDAYDHLTPDVLAKNEGLLSQASAIIADLNCPKETLEYLGSFAEINSIPLVLVPVSSPKMSHLPERLDHVTWLICNRDESETHLEMTIENDEDWRLAAQKWLDLGVKNVIVTNGSKGAVAANNAEGIIFEPAIVIENIVDVTGAGDAFCSAVIYAWLEGKSLQEILKAGSVNAARTLESEYTVRQNLSTSQLQKDLEEFKEGHHHHHH”: the “soluble on expression in E. coli” value is “soluble”.
Next, “MSLENRFDLRCYVVTGAGSVDEVVHTASAAARGGAGVVQVRSKPISPEAMRELASKVALEVARCSPTTRVLIDDHLHVASSLMREGLPIHGVHLGQDDMSVLEARELLGPEAIIGLTTGTLELVAAANELSDVLDYIGAGPFRKTPTKDSGRPPIGLAGYPPLVELSKVPIVAIGDVTPADVRALSATGVAGVAMVRAFSESDDPQQVAENVVANFELGRLSEGHHHHHH”: “soluble”; “MSLEPDNQTPLKILVTGASGFVGLRVLTQAQNIGYALVAQSRSQQPYSFEQVLLDITPNTDWERALVGVDCVVHCAARVHQMQETEADALKAYRDVNTQGTLNLAKQAVSAGVKRFIFLSSIKVNGEQTKAGSAFQHDDQHIPSDPYGLSKYEAEQQLLELAAETGLEVVIIRPPLVYGEGVKANFLSMMNWVKKQIPLPLGAVGNMRSLVYLDNLVDLILVCCQHPKAAGEIFLVSDNHDVSLTTLLRTIAQAMQIRPRLLPIPQTGLQWLLRLLGKPELGQRLCGNLQLDIAHTQKTLHWSPPVSFEQGIARTVNFYLSQSSKEGHHHHHH”: “soluble”; “MSLEQLATTSQQEILAERPQLTTKIAVDLDVKGIKEKDEDAWQNVQIYLAQINNEYADGSERYQYLVQTTVDKALRAKGYYNSQYQFVKTVSAEQKPLLTLNVQLDNQKVTIDEVDIQLQGDANTDEDFIELKKTAPNQGDSLAHNAYDDFKSHIEGLAFKKGYFDGQWLYHRLEVYPQNHSVDWRLAYDSGKRYRYGEINFIDNQIKEEYLTNILKIAPQQYYYASDLSLMTADYLSSNWFSSVLVEPKLNEKAKLVDLKIFFQPKKKNKVEIGAGFATQLGARLQLNWKKPWLNERGHSIDSRTYLSLPEQTLELGYNVPLRQNPLHYYYQFSGSLEHQNQQDTKSIAGSFGLQRFWTHETGWSFSAGIKSRYDSFTQANDKHKTLLVYPTAALNRTQTDGNRFPLWGDSQRITVNWGAKIFGSDVSFYSWKASSTWVRTYLDRHRLFLRGEVGQVHTKDFHQIPPTLRYFAGGDMSIRGFAYKSISPKEPKSGKLIGGSHLVTTTAEYQYRIYPDWWAAIFYDTGLVSDKFDHRALHSGAGVGVRWISPIGAIKFDIATPVKSPNNKRGVQFYIGLGSEEGHHHHHH”: “not soluble”.
Consider “MSLERPLCISYIRFSKATQAEGSSLERQLQLSRTYAEEHGLVLDDKHSYQDLGKSAFTSEHVKEGEFGVFLEFVKQGRVPKGSVLLVESLDRLSRESVLTAFKQFQEILDAGIKIVTLSDKMEYTKEGFEANIGNIFISLGIMARANEESLRKSERICAAWRLKRKNLHNIKLTANCPGWLELTPDKKDFILKEDRVEIVKQIFELSLSGLGVKAISTILNKQKIEPFRSKIGWYQTTVRKILSNSAVIGEFQPHVFGSKHSKPVPDGELIKDYFPPIIDTDTFYAVQAKLKNGAHREGHHHHHH”, for which the “soluble on expression in E. coli” value is “soluble”.
